Laboratory results reported in patent US7741276B2, “Use of interleukin-18 inhibitors to inhibit tumor metastasis” (Ares Trading S.A., priority 1999, dated 2010).
Several values for one entry are separate records, joined by “and”; a condition that tells them apart may be missing. Identical values can stand only once. Marks after values point to notes of the source that are not given here.

Assays:
[1] = system: B16M cell adhesion to IL-18-treated HSE; assay: B16M cell adhesion to IL-18-treated HSE; type: cell-based, mouse
Description: FIG. 4. In vitro B16M cells adhesion to IL-18-treated HSE. HSE cells were incubated with 1 ng/ml recombinant murine IL-18 for 6 hours. In some experiments, 10 μg/ml TNF-sRp55 or 100 ng/ml IL-1Ra was added 10 min before IL-18.In other experiments, 10 μg/ml anti-VCAM-1 antibody or a similar concentration of non-specific anti-mouse lgG was added to HSE cells 30 min before B16M cells. Then, B16M cell adhesion percentage was determined as described hereinbelow in the examples. The results represent the mean ±SD of three separate experiments, each in sextuplicate (n=18). Differences in the degree of adhesion with respect to basal medium-treated HSE (*) and to IL-18-treated HSE (**) were statistically significant (P<0.01), according to the Student's two-tailed, unpaired t-test.
(§1) HSE was separated from syngeneic mice, identified and cultured as previously described (26). B16M cells were labeled with 2′,7′-bis-(2-carboxyethyl)-5,6-carboxyfluorescein-acetoxymethylester solution (BCECF-AM, Molecular Probes, Eugene, Oreg.) as reported (16). Then, 2×10^5 cells/well were added to 24-well-plate cultured HSE and 8 min later, wells were washed three times with fresh medium. The number of adhering cells was determined using a quantitative method based on a previously described fluorescence measurement system (16). In some experiments, HSE cells were pre-incubated with B16M-CM for several hours before addition of B16M cells.

[2] = system: B16M cell adhesion to HSE cells; assay: B16M cell adhesion to B16M-CM-treated primary HSE cultures; type: cell-based, mouse; conditions: for % Melanoma Cell Adhesion: HSE stimulated with B16-CM
Description: FIG. 2 Effect of irreversible ICE inhibitor and anti-mouse IL-18 antibody on B16M cell adhesion to HSE cells, and IL-1β and TNF-α production from untreated and B16M-CM-treated HSE. Cultured HSE cells were incubated in the presence of B16M-CM for 10 h. In some experiments, both untreated and treated HSE cells received 10 μM ICEi or 10 μg/ml anti-mouse IL-18 antibody before B16M-CM. The percentage of B16M cells adhered to HSE substrate was calculated as relative value with respect to the initial number of added cells. In addition, the culture supernatants were recovered before adhesion to determine IL-1β and TNF-α concentration by ELISA. Data represent the mean ±SD of 4 separate experiments, each in sextuplicate (n=24). The augmentation of B16M cell adhesion to B16M-CM-treated HSE and of IL-1β or TNF-α production with respect to untreated HSE (*P<0.01) were statistically significant according to the Student's two-tailed, unpaired t-test.
(§2) FIG. 3. Effect of ICEi on B16M cell adhesion to B16M-CM-treated HSE in vitro. HSE cells were incubated with basal medium or B16M-CM for 8 h. Some HSE cells received 10 μM ICEi for 18 h before B16M-CM. In addition, 1 ng/ml recombinant murine IL-1β was also added to some HSE cells together with B16M-CM for 8 h. In other experiments, HSE cells received 1 ng/ml murine IL-1β or 100 pg/ml TNF-α for 6 h, and 10 μg/ml rabbit anti-mouse IL-18 polyclonal antibody was added or not 1 h before the cytokine treatment. Non-specific IgG polyclonal antibody was also added to untreated and cytokine-treated HSE cells. Then, HSE cells were washed and BCEFCF-AM-labeled B16M cells were added and washed again 8 min later. The percentage of B16M cells adhered to HSE substrate was calculated as relative value with respect to the initial number of added cells. The results represent the mean ±SD of three separate experiments, each in sextuplicate (n=18). Differences in the degree of adhesion with respect to untreated HSE (*) and to IL-1β or TNF-α-treated HSE (**) were statistically significant (P<0.01), according to the Student's two-tailed, unpaired t-test.
Culture of B16M cells. B16M cells were cultured, maintained and passaged as previously described (11). B16M conditioned medium (B16M-CM) was prepared as follows: 5×10^5 cells were plated in a 25 cm^2 T-flask and cultured for 24 h. After which, cells were cultured for an additional period of 24 h in 5 ml serum-free medium (final cellular density of 6×10^4 cells/cm^2). Supernatants were collected, diluted 3:1 in fresh serum-free medium and passed through a 0.22 Ïm filter.
(§3) HSE was separated from syngeneic mice, identified and cultured as previously described (26). […] The number of adhering cells was determined using a quantitative method based on a previously described fluorescence measurement system (16). […]

[3] = system: B16M cell adhesion to IL-1β or TNF-α-treated HSE; assay: B16M cell adhesion to IL-1β- or TNF-α-treated HSE; type: cell-based, mouse; conditions: 1 ng/ml murine IL-1β
Description: as §2, §3

IL-18 = molecular target: T1, IL-18 (Homo sapiens, UniProt Q14116); conditions: in vitro; cited from earlier work
T1 sequence (Q14116 37-193): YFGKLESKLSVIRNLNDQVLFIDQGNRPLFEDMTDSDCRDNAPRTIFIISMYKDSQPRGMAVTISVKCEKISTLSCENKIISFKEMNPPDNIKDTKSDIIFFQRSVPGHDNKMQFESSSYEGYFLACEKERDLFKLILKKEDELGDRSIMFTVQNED

circulating IFN-γ = conditions: administration of IL-18BP to mice; cited from earlier work
B16M cells = assay: Adhesion of pre-treated B16M cells (IL-18 or supernatant of B16M-CM-treated HSE) to HSE; type: cell-based, mouse; conditions: B16M cells incubated with 1 ng/ml murine IL-18 for 6 h
Description: However, local production of IL-18 may influence B16M cell behavior during its transit or arrest in the hepatic microvasculature.
as §1

## IL-1Ra: recombinant human IL-1 receptor antagonist, gift from The Upjohn Co. [reference compound]
[1]; 100 ng/ml IL-1Ra added 10 min before IL-18
  inhibition of IL-18-induced B16M cell adhesion to HSE: neither TNF-sR p55 nor IL-1Ra were able to inhibit it

B1: TNF-sR p55: human p55 TNF soluble receptor, gift from Serono Inc. (protein, UniProt P19438 30-211, looked up)
extracellular domain: LVPHLGDREKRDSVCPQGKYIHPQNNSICCTKCHKGTYLYNDCPGPGQDTDCRECESGSFTASENHLRHCLSCSKCRKEMGQVEISSCTVDRDTVCGCRKNQYRHYWSENLFQCFNCSLCLNGTVHLSCQEKQNTVCTCHAGFFLRENECVSCSNCKKSLECTKLCLPQIENVKGTEDSGTT
modifications: extracellular domain
[1]; 10 μg/ml TNF-sRp55 added 10 min before IL-18
  inhibition of IL-18-induced B16M cell adhesion to HSE: neither TNF-sR p55 nor IL-1Ra were able to inhibit it

B2: murine IL-1β: recombinant murine IL-1β from R&D System Inc. (protein, UniProt P10749 118-269, looked up)
Interleukin-1 beta: VPIRQLHYRLRDEQQKSLVLSDPYELKALHLNGQNINQQVIFSMSFVQGEPSNDKIPVALGLKGKNLYLSCVMKDGTPTLQLESVDPKQYPKKKMEKRFVFNKIEVKSKVEFESAEFPNWYISTSQAEHKPVFLGNNSGQDIIDFTMESVSS
[2]; 1 ng/ml murine IL-1β added with B16M-CM for 8 h to ICEi-treated HSE
  compensation of the blocking effect of ICEi on HSE adhesiveness: did not compensate
[3]
  B16M cell adhesion to IL-1β-treated control HSE: significant B16M cell adhesion increase

B3: IL-18BP: IL-18 binding protein, purified from urine, cloned and expressed in COS7 cells; binds IL-18 and blocks its activity (protein, UniProt O95998 31-194, looked up)
Interleukin-18-binding protein: TPVSQTTTAATASVRSTKDPCPSQPPVFPAAKQCPALEVTWPEVEVPLNGTLSLSCVACSRFPNFSILYWLGNGSFIEHLPGRLWEGSTSRERGSTGTQLCKALVLEQLTPALHSTNFSCVLVDPEQVVQRHVVLAQLWAGLRATLPPTQEALPSSHSSPQQQG
[2]; IL-18BP 1 ng/ml
  % Melanoma Cell Adhesion: 15.00 ± 2.5** %
[2]; IL-18BP 10 ng/ml
  % Melanoma Cell Adhesion: 8.70% and 8.70 ± 1.1** %
[2]; IL-18BP 10 ng/ml, adhesion below basal medium level
  inhibition of B16-CM-induced adhesion: 100%
IL-18
  IL-18 activation of NF-κB: abolished
  IL-18 induction of IL-8: abolished
  IL-18 induction of interferon-γ (IFN-γ): abolished
Circulating IFN-γ
  circulating IFN-γ following LPS: abrogated

B4: murine IL-18: recombinant murine IL-18 purchased from PeproTech (protein, UniProt P70380 36-192, looked up)
Interleukin-18: NFGRLHCTTAVIRNINDQVLFVDKRQPVFEDMTDIDQSASEPQTRLIIYMYKDSEVRGLAVTLSVKDSKMSTLSCKNKIISFEEMDPPENIDDIQSDLIFFQKRVPGHNKMEFESSLYEGHFLACQKEDDAFKLILKKKDENGDKSVMFTLTNLHQS
[1]; HSE incubated with 1 ng/ml recombinant murine IL-18 for 6 hours, P<0.01
  B16M cell adhesion to HSE: increased
B16M cells
  increase of B16M cell adhesion to untreated HSE: 2 fold
